Experiments:
Assay in all cases: cell-based or functional assay
[1] = target: HIV-1 Env of pseudovirus 0815.v3.c3 (HIV-1)
[2] = target: HIV-1 Env of pseudovirus RHPA4259.7 (HIV-1)
[3] = target: HIV-1 Env of pseudovirus 191955_A11 (HIV-1)
[4] = target: HIV-1 Env of pseudovirus AC10.0.29 (HIV-1)
[5] = target: HIV-1 Env of pseudovirus 231966.c02 (HIV-1)
[6] = target: HIV-1 Env of pseudovirus CNE53 (HIV-1)
[7] = target: HIV-1 Env of pseudovirus CNE20 (HIV-1)
[8] = target: HIV-1 Env of pseudovirus ZM247v1(Rev-) (HIV-1)
[9] = target: HIV-1 Env of pseudovirus 263-8 (HIV-1)
[10] = target: HIV-1 Env of pseudovirus 6240_08_TA5_4622 (HIV-1)
[11] = target: HIV-1 Env of pseudovirus C4118.c09 (HIV-1)
[12] = target: HIV-1 Env of pseudovirus CAAN5342.A2 (HIV-1)
[13] = target: HIV-1 Env of pseudovirus Q259.d2.17 (HIV-1)
[14] = target: HIV-1 Env of pseudovirus 1054_07_TC4_1499 (HIV-1)
[15] = target: HIV-1 Env of pseudovirus CAP45.2.00.G3 (HIV-1)
[16] = target: HIV-1 Env of pseudovirus Ce1172_H1 (HIV-1)
[17] = target: HIV-1 Env of pseudovirus T250-4 (HIV-1)
[18] = target: HIV-1 Env of pseudovirus P0402_c2_11 (HIV-1)
[19] = target: HIV-1 Env of pseudovirus ZM233M.PB6 (HIV-1)
[20] = target: HIV-1 Env of pseudovirus BJOX009000.02.4 (HIV-1)
[21] = target: HIV-1 Env of pseudovirus CNE52 (HIV-1)
[22] = target: HIV-1 Env of pseudovirus Du156.12 (HIV-1)
[23] = target: HIV-1 Env of pseudovirus T278-50 (HIV-1)
[24] = target: HIV-1 Env of pseudovirus 928-28 (HIV-1)
[25] = target: HIV-1 Env of pseudovirus X2088_c9 (HIV-1)
[26] = target: HIV-1 Env of pseudovirus HIV-0013095-2.11 (HIV-1)
[27] = target: HIV-1 Env of pseudovirus 246F C1G (HIV-1)
[28] = target: HIV-1 Env of pseudovirus MS208.A1 (HIV-1)
[29] = target: HIV-1 Env of pseudovirus PVO.4 (HIV-1)
[30] = target: HIV-1 Env of pseudovirus 235-47 (HIV-1)
[31] = target: HIV-1 Env of pseudovirus ZM135M.PL10a (HIV-1)
[32] = target: HIV-1 Env of pseudovirus Ce704809221_1B3 (HIV-1)
[33] = target: HIV-1 Env of pseudovirus 6535.3 (HIV-1)
[34] = target: HIV-1 Env of pseudovirus Ce703010054_2A2 (HIV-1)
[35] = target: HIV-1 Env of pseudovirus X1254_c3 (HIV-1)
[36] = target: HIV-1 Env of pseudovirus WEAU_d15_410_787 (HIV-1)
[37] = target: HIV-1 Env of pseudovirus Q461.e2 (HIV-1)

Substance N49P6 (antibody) has an IC50 [1] of 0.194 µg/mL, an IC80 [1] of 1.25 µg/mL and an MPI [1] of 100. It also gave an IC50 [2] of 0.117 µg/mL, an IC80 [2] of 0.443 µg/mL and an MPI [2] of 100. It also gave an IC50 [3] of 0.124 µg/mL, an IC80 [3] of 0.344 µg/mL and an MPI [3] of 100. For the same substance, the IC50 [4] was 32.3 µg/mL, the IC80 [4] was over 50 µg/mL and the MPI [4] was 67. For the same substance, the IC50 [5] was 0.339 µg/mL, the IC80 [5] was 1.62 µg/mL and the MPI [5] was 100. The IC50 [6] was 0.249 µg/mL, the IC80 [6] was 0.871 µg/mL and the MPI [6] was 99. The IC50 [7] was 2.74 µg/mL, the IC80 [7] was 15.6 µg/mL and the MPI [7] was 95. The IC50 [8] was 0.063 µg/mL, the IC80 [8] was 0.17 µg/mL and the MPI [8] was 100. The IC50 [9] was 0.116 µg/mL, the IC80 [9] was 0.438 µg/mL and the MPI [9] was 100. The IC50 [10] was 0.567 µg/mL, the IC80 [10] was 1.76 µg/mL and the MPI [10] was 100. The IC50 [11] was 0.092 µg/mL, the IC80 [11] was 0.243 µg/mL and the MPI [11] was 100. It also gave an IC50 [12] of 0.657 µg/mL, an IC80 [12] of 1.83 µg/mL and an MPI [12] of 100. The IC50 [13] was 24.4 µg/mL, the IC80 [13] was over 50 µg/mL and the MPI [13] was 75. For the same substance, the IC50 [14] was 0.624 µg/mL, the IC80 [14] was 2.85 µg/mL and the MPI [14] was 100. For the same substance, the IC50 [15] was 21.7 µg/mL, the IC80 [15] was over 50 µg/mL and the MPI [15] was 75. For the same substance, the IC50 [16] was 14.4 µg/mL, the IC80 [16] was 47.3 µg/mL and the MPI [16] was 82. The IC50 [17] was 21.9 µg/mL, the IC80 [17] was over 50 µg/mL and the MPI [17] was 68. It also gave an IC50 [18] of 3.54 µg/mL, an IC80 [18] of 19 µg/mL and an MPI [18] of 99. For the same substance, the IC50 [19] was 1.23 µg/mL, the IC80 [19] was 4 µg/mL and the MPI [19] was 99. The IC50 [20] was 0.32 µg/mL, the IC80 [20] was 1.46 µg/mL and the MPI [20] was 100. For the same substance, the IC50 [21] was 0.028 µg/mL, the IC80 [21] was 0.095 µg/mL and the MPI [21] was 100. It also gave an IC50 [22] of 0.082 µg/mL, an IC80 [22] of 0.28 µg/mL and an MPI [22] of 100. For the same substance, the IC50 [23] was 25.7 µg/mL, the IC80 [23] was over 50 µg/mL and the MPI [23] was 67. It also gave an IC50 [24] of 1.24 µg/mL, an IC80 [24] of 5.6 µg/mL and an MPI [24] of 99. For the same substance, the IC50 [25] was 27 µg/mL, the IC80 [25] was over 50 µg/mL and the MPI [25] was 65. The IC50 [26] was 0.971 µg/mL, the IC80 [26] was 8.04 µg/mL and the MPI [26] was 96. The IC50 [27] was 0.513 µg/mL, the IC80 [27] was 2.51 µg/mL and the MPI [27] was 99. It also gave an IC50 [28] of 0.11 µg/mL, an IC80 [28] of 0.436 µg/mL and an MPI [28] of 100. For the same substance, the IC50 [29] was 0.128 µg/mL, the IC80 [29] was 0.357 µg/mL and the MPI [29] was 100. The IC50 [30] was 13 µg/mL, the IC80 [30] was 46.4 µg/mL and the MPI [30] was 82. It also gave an IC50 [31] of 0.494 µg/mL, an IC80 [31] of 1.77 µg/mL and an MPI [31] of 99. It also gave an IC50 [32] of 1.67 µg/mL, an IC80 [32] of 12.8 µg/mL and an MPI [32] of 97. It also gave an IC50 [33] of 0.417 µg/mL, an IC80 [33] of 1.34 µg/mL and an MPI [33] of 100. It also gave an IC50 [34] of 0.245 µg/mL, an IC80 [34] of 0.841 µg/mL and an MPI [34] of 100. The IC50 [35] was 15.7 µg/mL, the IC80 [35] was 34.2 µg/mL and the MPI [35] was 91. It also gave an IC50 [36] of 0.07 µg/mL, an IC80 [36] of 0.188 µg/mL and an MPI [36] of 100. It also gave an IC50 [37] of 0.173 µg/mL, an IC80 [37] of 0.622 µg/mL and an MPI [37] of 100.
NIH 45-46 (antibody) was tested, and the IC50, titer in TZM.bl cells [1] was 0.01 µg/mL, the IC80, titer in TZM.bl cells [1] was 0.03 µg/mL and the neutralization IC50 [2] was under 0.05 µg/mL. For the same substance, the neutralization IC80 [2] was under 0.05 µg/mL, the neutralization IC50 [3] was 0.11 µg/mL and the neutralization IC80 [3] was 0.43 µg/mL. For the same substance, the neutralization IC50 [4] was 0.42 µg/mL, the neutralization IC80 [4] was 1.49 µg/mL and the IC50, titer in TZM.bl cells [5] was 1.11 µg/mL. For the same substance, the IC80, titer in TZM.bl cells [5] was 11.4 µg/mL, the neutralization IC50 [6] was 0.01 µg/mL and the neutralization IC80 [6] was 0.04 µg/mL. The neutralization IC50 [7] was 8.71 µg/mL, the neutralization IC80 [7] was 47 µg/mL and the neutralization IC50 [8] was 1.64 µg/mL. It also gave a neutralization IC80 [8] of over 50 µg/mL, a neutralization IC50 [9] of 0.05 µg/mL and a neutralization IC80 [9] of 0.1 µg/mL. The neutralization IC50 [10] was 0.44 µg/mL, the neutralization IC80 [10] was 1.55 µg/mL and the IC50, titer in TZM.bl cells [11] was 0.14 µg/mL. It also gave an IC80, titer in TZM.bl cells [11] of 0.91 µg/mL, a neutralization IC50 [12] of 0.11 µg/mL and a neutralization IC80 [12] of 0.33 µg/mL. The neutralization IC50 [13] was 0.01 µg/mL, the neutralization IC80 [13] was 0.06 µg/mL and the neutralization IC50 [14] was 0.07 µg/mL. The neutralization IC80 [14] was 0.61 µg/mL, the neutralization IC50 [15] was over 50 µg/mL and the neutralization IC80 [15] was over 50 µg/mL. The neutralization IC50 [16] was over 50 µg/mL, the neutralization IC80 [16] was over 50 µg/mL and the IC50, titer in TZM.bl cells [17] was over 30 µg/mL. The IC80, titer in TZM.bl cells [17] was over 30 µg/mL, the IC50, titer in TZM.bl cells [18] was 0.06 µg/mL and the IC80, titer in TZM.bl cells [18] was 0.26 µg/mL. For the same substance, the neutralization IC50 [19] was 1.86 µg/mL, the neutralization IC80 [19] was 16.5 µg/mL and the IC50, titer in TZM.bl cells [20] was 0.26 µg/mL. It also gave an IC80, titer in TZM.bl cells [20] of 1.16 µg/mL, a neutralization IC50 [21] of 0.03 µg/mL and a neutralization IC80 [21] of 0.12 µg/mL. For the same substance, the neutralization IC50 [22] was 0.01 µg/mL, the neutralization IC80 [22] was 0.05 µg/mL and the IC50, titer in TZM.bl cells [23] was over 30 µg/mL. The IC80, titer in TZM.bl cells [23] was over 30 µg/mL, the neutralization IC50 [24] was 0.1 µg/mL and the neutralization IC80 [24] was 0.39 µg/mL. It also gave an IC50, titer in TZM.bl cells [25] of over 50 µg/mL, an IC80, titer in TZM.bl cells [25] of over 50 µg/mL and a neutralization IC50 [26] of 0.01 µg/mL. For the same substance, the neutralization IC80 [26] was 0.03 µg/mL, the neutralization IC50 [27] was over 50 µg/mL and the neutralization IC80 [27] was over 50 µg/mL. It also gave a neutralization IC50 [28] of 0.09 µg/mL, a neutralization IC80 [28] of 0.6 µg/mL and a neutralization IC50 [29] of 0.17 µg/mL. For the same substance, the neutralization IC80 [29] was 0.47 µg/mL, the IC50, titer in TZM.bl cells [30] was 0.3 µg/mL and the IC80, titer in TZM.bl cells [30] was 1.49 µg/mL. It also gave a neutralization IC50 [31] of 0.36 µg/mL, a neutralization IC80 [31] of 3.11 µg/mL and a neutralization IC50 [32] of 0.15 µg/mL. It also gave a neutralization IC80 [32] of 0.88 µg/mL, a neutralization IC50 [33] of 0.14 µg/mL and a neutralization IC80 [33] of 0.28 µg/mL. It also gave a neutralization IC50 [34] of 0.22 µg/mL, a neutralization IC80 [34] of 0.97 µg/mL and an IC50, titer in TZM.bl cells [35] of 0.08 µg/mL. It also gave an IC80, titer in TZM.bl cells [35] of 0.08 µg/mL, a neutralization IC50 [36] of 0.01 µg/mL and a neutralization IC80 [36] of 0.03 µg/mL. It also gave a neutralization IC50 [37] of 0.06 µg/mL and a neutralization IC80 [37] of 0.32 µg/mL.
